± gives the standard deviation of the averaged measurements.
B1: library; numbered along this chain (parent)
chain: MNIQIGELAKRTACPVVTIRFYEQEGLLPPPGRSRGNFRLYGEEHVERLQFIRHCRSLDMPLSDVRTLLSYRKRPDQDCGEVNMLLDEHIRQVESRIGALLELKHHLVELREACSGARPAQSCGILQGLSDCVCDTRGTTAHPSD

What was measured:
[1] = variants of: B1; experiment: sfGFP reporter fluorescence (15 h) (µM FITC); higher = higher leak; settings: library round: Round 1; ligand: none
Protocol: (§1)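 Cell-free biosensing: 1 µL Echo-assembled CFE reactions with linear PbrR variant templates (5 nM) and pPbrR-sfGFP reporter, with 1 µM Pb, 30 µM Zn or no ligand; endpoint sfGFP fluorescence after 15 h at 30 °C calibrated as µM FITC. Round 1 ML-predicted PbrR mutants; 3 biological replicates.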

[2] = variants of: B1; experiment: sfGFP reporter fluorescence (15 h) (µM FITC); higher = stronger transcriptional activation; settings: library round: Round 1
Protocol: as §1

L126I D135A
sfGFP reporter fluorescence [1]: 0.0632 ± 0.0024 | sfGFP reporter fluorescence ([2]; ligand: 1 µM Pb): 0.064 ± 0.0037 | sfGFP reporter fluorescence ([2]; ligand: 30 µM Zn): 0.152 ± 0.0059

P61N D131C
sfGFP reporter fluorescence [1]: 0.108 ± 0.0091 | sfGFP reporter fluorescence ([2]; ligand: 1 µM Pb): 0.428 ± 0.043 | sfGFP reporter fluorescence ([2]; ligand: 30 µM Zn): 1.59 ± 0.16

V46F K104V
sfGFP reporter fluorescence [1]: 0.0666 ± 0.0012 | sfGFP reporter fluorescence ([2]; ligand: 1 µM Pb): 0.103 ± 0.0038 | sfGFP reporter fluorescence ([2]; ligand: 30 µM Zn): 0.475 ± 0.047

E109L D135P
sfGFP reporter fluorescence [1]: 0.0655 ± 0.0031 | sfGFP reporter fluorescence ([2]; ligand: 1 µM Pb): 0.102 ± 0.0041 | sfGFP reporter fluorescence ([2]; ligand: 30 µM Zn): 0.497 ± 0.027

E109L D135R
sfGFP reporter fluorescence [1]: 0.0677 ± 0.0015 | sfGFP reporter fluorescence ([2]; ligand: 1 µM Pb): 0.0959 ± 0.0042 | sfGFP reporter fluorescence ([2]; ligand: 30 µM Zn): 0.406 ± 0.061

E25V R111M
sfGFP reporter fluorescence [1]: 0.063 ± 0.0024 | sfGFP reporter fluorescence ([2]; ligand: 1 µM Pb): 0.0654 ± 0.0053 | sfGFP reporter fluorescence ([2]; ligand: 30 µM Zn): 0.152 ± 0.0061

D64L K104V L107R
sfGFP reporter fluorescence [1]: 0.0627 ± 0.0017 | sfGFP reporter fluorescence ([2]; ligand: 1 µM Pb): 0.0614 ± 0.0042 | sfGFP reporter fluorescence ([2]; ligand: 30 µM Zn): 0.0593 ± 0.0044

E94C K104V
sfGFP reporter fluorescence [1]: 0.0704 ± 0.0013 | sfGFP reporter fluorescence ([2]; ligand: 1 µM Pb): 0.072 ± 0.0039 | sfGFP reporter fluorescence ([2]; ligand: 30 µM Zn): 0.184 ± 0.002

D131H P143Y
sfGFP reporter fluorescence [1]: 0.064 ± 0.0022 | sfGFP reporter fluorescence ([2]; ligand: 1 µM Pb): 0.0797 ± 0.012 | sfGFP reporter fluorescence ([2]; ligand: 30 µM Zn): 0.383 ± 0.0077

P30A V46R
sfGFP reporter fluorescence [1]: 0.0618 ± 0.0011 | sfGFP reporter fluorescence ([2]; ligand: 1 µM Pb): 0.0716 ± 0.0014 | sfGFP reporter fluorescence ([2]; ligand: 30 µM Zn): 0.298 ± 0.024

E43M G128I
sfGFP reporter fluorescence [1]: 0.077 ± 0.0028 | sfGFP reporter fluorescence ([2]; ligand: 1 µM Pb): 0.206 ± 0.025 | sfGFP reporter fluorescence ([2]; ligand: 30 µM Zn): 1.23 ± 0.086

E94D K104V
sfGFP reporter fluorescence [1]: 0.0655 ± 0.0018 | sfGFP reporter fluorescence ([2]; ligand: 1 µM Pb): 0.101 ± 0.047 | sfGFP reporter fluorescence ([2]; ligand: 30 µM Zn): 0.352 ± 0.039

P61N D131A P143W
sfGFP reporter fluorescence [1]: 0.0886 ± 0.0011 | sfGFP reporter fluorescence ([2]; ligand: 1 µM Pb): 0.134 ± 0.023 | sfGFP reporter fluorescence ([2]; ligand: 30 µM Zn): 0.59 ± 0.051

D131A C134V
sfGFP reporter fluorescence [1]: 0.0781 ± 0.0011 | sfGFP reporter fluorescence ([2]; ligand: 1 µM Pb): 0.12 ± 0.0056 | sfGFP reporter fluorescence ([2]; ligand: 30 µM Zn): 1.24 ± 0.15

D64K N83T D131S
sfGFP reporter fluorescence [1]: 0.0698 ± 0.0016 | sfGFP reporter fluorescence ([2]; ligand: 1 µM Pb): 0.29 ± 0.022 | sfGFP reporter fluorescence ([2]; ligand: 30 µM Zn): 1.03 ± 0.022

E43Y P61N
sfGFP reporter fluorescence [1]: 0.0713 ± 0.0038 | sfGFP reporter fluorescence ([2]; ligand: 1 µM Pb): 0.139 ± 0.0038 | sfGFP reporter fluorescence ([2]; ligand: 30 µM Zn): 0.822 ± 0.12

N83M D131A
sfGFP reporter fluorescence [1]: 0.0614 ± 0.0015 | sfGFP reporter fluorescence ([2]; ligand: 1 µM Pb): 0.0845 ± 0.004 | sfGFP reporter fluorescence ([2]; ligand: 30 µM Zn): 0.065 ± 0.0015

L126I D131C
sfGFP reporter fluorescence [1]: 0.0635 ± 0.0019 | sfGFP reporter fluorescence ([2]; ligand: 1 µM Pb): 0.0635 ± 0.0022 | sfGFP reporter fluorescence ([2]; ligand: 30 µM Zn): 0.0699 ± 0.0022

N83F P143K
sfGFP reporter fluorescence [1]: 0.0612 ± 0.00097 | sfGFP reporter fluorescence ([2]; ligand: 1 µM Pb): 0.0718 ± 0.0033 | sfGFP reporter fluorescence ([2]; ligand: 30 µM Zn): 0.0627 ± 0.00097

P61L L62I
sfGFP reporter fluorescence [1]: 0.063 ± 0.00064 | sfGFP reporter fluorescence ([2]; ligand: 1 µM Pb): 0.063 ± 0.0019 | sfGFP reporter fluorescence ([2]; ligand: 30 µM Zn): 0.0771 ± 0.0011

D64K D131L
sfGFP reporter fluorescence [1]: 0.176 ± 0.017 | sfGFP reporter fluorescence ([2]; ligand: 1 µM Pb): 0.513 ± 0.098 | sfGFP reporter fluorescence ([2]; ligand: 30 µM Zn): 1.89 ± 0.093

K104V R111L
sfGFP reporter fluorescence [1]: 0.0656 ± 0.0016 | sfGFP reporter fluorescence ([2]; ligand: 1 µM Pb): 0.0694 ± 0.0047 | sfGFP reporter fluorescence ([2]; ligand: 30 µM Zn): 0.0976 ± 0.0039

N83T H89Q
sfGFP reporter fluorescence [1]: 0.0608 ± 0.0025 | sfGFP reporter fluorescence ([2]; ligand: 1 µM Pb): 0.0955 ± 0.011 | sfGFP reporter fluorescence ([2]; ligand: 30 µM Zn): 0.258 ± 0.013

R111L G128I
sfGFP reporter fluorescence [1]: 0.0666 ± 0.0024 | sfGFP reporter fluorescence ([2]; ligand: 1 µM Pb): 0.0985 ± 0.0091 | sfGFP reporter fluorescence ([2]; ligand: 30 µM Zn): 0.528 ± 0.024

M60L P61N D64K K104V L107E G128I
sfGFP reporter fluorescence [1]: 0.0622 ± 0.0024 | sfGFP reporter fluorescence ([2]; ligand: 1 µM Pb): 0.0589 ± 0.0018 | sfGFP reporter fluorescence ([2]; ligand: 30 µM Zn): 0.0596 ± 0.0016

G128I D131E
sfGFP reporter fluorescence [1]: 0.0825 ± 0.0029 | sfGFP reporter fluorescence ([2]; ligand: 1 µM Pb): 0.203 ± 0.022 | sfGFP reporter fluorescence ([2]; ligand: 30 µM Zn): 1.34 ± 0.037

D64K C114F
sfGFP reporter fluorescence [1]: 0.0621 ± 0.0032 | sfGFP reporter fluorescence ([2]; ligand: 1 µM Pb): 0.0613 ± 0.0011 | sfGFP reporter fluorescence ([2]; ligand: 30 µM Zn): 0.0596 ± 0.0016

N83Y R111D
sfGFP reporter fluorescence [1]: 0.06194 ± 0.00037 | sfGFP reporter fluorescence ([2]; ligand: 1 µM Pb): 0.0568 ± 0.0025 | sfGFP reporter fluorescence ([2]; ligand: 30 µM Zn): 0.0571 ± 0.0031

N83Y R111A
sfGFP reporter fluorescence [1]: 0.064 ± 0.00092 | sfGFP reporter fluorescence ([2]; ligand: 1 µM Pb): 0.0721 ± 0.0067 | sfGFP reporter fluorescence ([2]; ligand: 30 µM Zn): 0.0742 ± 0.00085

N83Y R111L
sfGFP reporter fluorescence [1]: 0.06133 ± 0.00056 | sfGFP reporter fluorescence ([2]; ligand: 1 µM Pb): 0.0694 ± 0.0053 | sfGFP reporter fluorescence ([2]; ligand: 30 µM Zn): 0.0698 ± 0.0019

P61N D64T
sfGFP reporter fluorescence [1]: 0.345 ± 0.02 | sfGFP reporter fluorescence ([2]; ligand: 1 µM Pb): 1.06 ± 0.11 | sfGFP reporter fluorescence ([2]; ligand: 30 µM Zn): 3.56 ± 0.13

P61N D64A
sfGFP reporter fluorescence [1]: 0.0855 ± 0.0012 | sfGFP reporter fluorescence ([2]; ligand: 1 µM Pb): 0.183 ± 0.013 | sfGFP reporter fluorescence ([2]; ligand: 30 µM Zn): 1.07 ± 0.098

N83T L107C C114R G128M
sfGFP reporter fluorescence [1]: 0.063 ± 0.0015 | sfGFP reporter fluorescence ([2]; ligand: 1 µM Pb): 0.0605 ± 0.0029 | sfGFP reporter fluorescence ([2]; ligand: 30 µM Zn): 0.06108 ± 0.00021

N83Y K104V
sfGFP reporter fluorescence [1]: 0.0651 ± 0.0031 | sfGFP reporter fluorescence ([2]; ligand: 1 µM Pb): 0.119 ± 0.024 | sfGFP reporter fluorescence ([2]; ligand: 30 µM Zn): 0.0894 ± 0.0065

N83T P143R
sfGFP reporter fluorescence [1]: 0.0618 ± 0.0013 | sfGFP reporter fluorescence ([2]; ligand: 1 µM Pb): 0.0709 ± 0.0047 | sfGFP reporter fluorescence ([2]; ligand: 30 µM Zn): 0.145 ± 0.0075

E43C K104V
sfGFP reporter fluorescence [1]: 0.065 ± 0.0013 | sfGFP reporter fluorescence ([2]; ligand: 1 µM Pb): 0.0922 ± 0.0039 | sfGFP reporter fluorescence ([2]; ligand: 30 µM Zn): 0.162 ± 0.011

H105E
sfGFP reporter fluorescence [1]: 0.0625 ± 0.0011 | sfGFP reporter fluorescence ([2]; ligand: 1 µM Pb): 0.06829 ± 0.00056 | sfGFP reporter fluorescence ([2]; ligand: 30 µM Zn): 0.31 ± 0.016

P61N R111L
sfGFP reporter fluorescence [1]: 0.0644 ± 0.0014 | sfGFP reporter fluorescence ([2]; ligand: 1 µM Pb): 0.0861 ± 0.0066 | sfGFP reporter fluorescence ([2]; ligand: 30 µM Zn): 0.265 ± 0.025

N83T E109L P143R
sfGFP reporter fluorescence [1]: 0.0641 ± 0.00073 | sfGFP reporter fluorescence ([2]; ligand: 1 µM Pb): 0.0812 ± 0.0015 | sfGFP reporter fluorescence ([2]; ligand: 30 µM Zn): 0.183 ± 0.0048

D64T N83T R111I
sfGFP reporter fluorescence [1]: 0.0783 ± 0.0017 | sfGFP reporter fluorescence ([2]; ligand: 1 µM Pb): 0.156 ± 0.014 | sfGFP reporter fluorescence ([2]; ligand: 30 µM Zn): 1.12 ± 0.13

N83S K104V
sfGFP reporter fluorescence [1]: 0.064 ± 0.0016 | sfGFP reporter fluorescence ([2]; ligand: 1 µM Pb): 0.121 ± 0.0056 | sfGFP reporter fluorescence ([2]; ligand: 30 µM Zn): 0.405 ± 0.015

N83I H89C
sfGFP reporter fluorescence [1]: 0.0654 ± 0.0027 | sfGFP reporter fluorescence ([2]; ligand: 1 µM Pb): 0.0645 ± 0.0035 | sfGFP reporter fluorescence ([2]; ligand: 30 µM Zn): 0.0687 ± 0.0029

E81Q
sfGFP reporter fluorescence [1]: 0.0605 ± 0.0017 | sfGFP reporter fluorescence ([2]; ligand: 1 µM Pb): 0.0673 ± 0.0016 | sfGFP reporter fluorescence ([2]; ligand: 30 µM Zn): 0.189 ± 0.022

D131A D135A
sfGFP reporter fluorescence [1]: 0.077 ± 0.0023 | sfGFP reporter fluorescence ([2]; ligand: 1 µM Pb): 0.184 ± 0.0043 | sfGFP reporter fluorescence ([2]; ligand: 30 µM Zn): 2.2 ± 0.17
